Here are results for 1 substance from patent publication US20230174626A1.

The target in the assay is HCMV glycoprotein H (gH) on TB40 virus (Human Cytomegalovirus (HCMV), TB40 virus). Put plainly: cell-based or functional assay.

Consider mAb MSL-109 (antibody), for which the IC50 (µg/ml), HCMV TB40 neutralization on ARPE-19 epithelial cells came out at 0.89 µg/mL and the IC50 (µg/ml), HCMV TB40 neutralization on MRC-5 fibroblasts was 0.46 µg/mL.
